Laboratory results taken from the supplement of paper PMC9170038.

Test system: MS2 coat protein
Assay: apparent KD of MS2 coat protein; designed switch direction (-1 OFF switch, 1 ON switch): -1; higher = weaker reporter binding
In short: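 The reported apparent KD is a per-design median over clusters, from curve fits of normalised cluster fluorescence. Protein titrations used SNAP-549-labelled MS2 coat protein, doubled from 0.7 or 1.5 nM to 3 µM, in Tris-HCl pH 7.5 buffer with KCl, MgCl2, BSA, DTT, tRNA and Tween-20, with no input, 200 uM small-molecule ligand, or an oligonucleotide input. The RNA switches were transcribed on Illumina chips by stalled E. coli RNA polymerase.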

[1] = Eterna round: R95, input ligand: microRNA oligo, concentration not stated
[2] = input ligand: microRNA oligo, concentration not stated
[3] = Eterna round: R95, input ligand: FMN 200 uM
[4] = Eterna round: R95, input ligand: none

| Sequence | apparent KD of MS2 coat protein [1] | apparent KD of MS2 coat protein (input ligand: FMN 200 uM) | apparent KD of MS2 coat protein (input ligand: none) | further results |
| --- | --- | --- | --- | --- |
| AACAUGUCAGGAUAUGUGACAUGGCUCUUCGGAGCAAGAUCACAGAAGGGACAUGAGGAUCACCCAUGUCGAUC [Ex4-3: 28] (puzzle: Exclusion 4) | 32.7 nM | – | – | – |
| AAGAUGCGGGUAGGAUAUGGAGAGAAAGAAAGACCAGAAGGAUUGGUCAUAUAACAUGAGGAUCACCCAUGUAUAUGUUGCGAA [EX ng 1 5] (Eterna round: R96, puzzle: Exclusion NG 1) | – | 19.6 nM | 21 nM | apparent KD of MS2 coat protein [2]: 16.2 nM |
| UAGGUGUGAGGAUAUGGUAAAGAUAAAAUGAUGAAAGAACUCCAGAAGGCACAUGAGGAUCACCCAUGUAGAUG [Mat - Exclusion 4 - Mod of JL - D33] (puzzle: Exclusion 4) | 28.3 nM | – | – | – |
| GCAGCAUAGUUUACUAGCUGUUACAUGAGGAUCACCCAUGUUCAGGAUAUGGUCUGGAUUACAGGCCAGAAGGGAACAAGCUGC [Eli exng3 - 029] (Eterna round: R96, puzzle: Exclusion NG 3) | – | – | – | apparent KD of MS2 coat protein [2]: 7.99 nM |
| AUAAUAUAUGUAGGAUAUCUGCACGUGUAGUGCAGAGAAGGACAUGAGGAUCACCCAUGUAAUUAAGAUCAAUUAUUAAAUUAU [ENG1/4-B3] (Eterna round: R96, puzzle: Exclusion NG 1) | – | 83.8 nM | 38.1 nM | apparent KD of MS2 coat protein [2]: 35.5 nM |
| CCGAGCAGACGGAGAUCCAACAUGAGGAUCACCCAUGUCUCAAAAGCUUUUUGCUUGUCUUAUUCUCCUCUGUUCUC [Qureorxe] (puzzle: Sensor v3, turn-off variant 1) | 29.2 nM | – | – | apparent KD of MS2 coat protein [3]: 12.5 nM; apparent KD of MS2 coat protein [4]: 11.3 nM |
| UCAUGUUUAGAGGAUAUGAUUACUUUCGAGUAAUCAGAAGGCUAGACAUGAGGAUCACCCAUGUCAUAACAUGA [Exclusion 6 - B - 15:b] (puzzle: Exclusion 6) | 71.8 nM | – | – | apparent KD of MS2 coat protein [3]: 68.7 nM; apparent KD of MS2 coat protein [4]: 214 nM |
| UUUGGGUCAGGAUAUUGUUAGUUUAGUUGUUUGUAUUAGUUCGAGAAGGGACAUGAGGAUCACCCAUGUGGUUU [Ex4 #78] (Eterna round: R97, puzzle: Exclusion 4) | – | 81.4 nM | 85.3 nM | – |
| GACUGCCGAGGAUAUACAUGAGGAUCACCCAUGUGCUUCAGCAUCGAAAGAUGCAUGGGUAGAAGGCGGUAGUC [LRO-Excl3-11] (puzzle: Exclusion 3) | 25.4 nM | – | – | – |
| GACUUGUUAGGAUAUCUUACAUUUGCAUUAUAGCAACUAUUGGAGAAGGGACAUGAGGAUCACCCAUGUUUGGG [tap-tap-tappy17] (Eterna round: R97, puzzle: Exclusion 4) | – | 504 nM | 479 nM | – |
| GAGCUGAACUCAGGAUAUUGCGAGUCUUGGGUGACAGCUCUGACAUGAGGAUCACCCAUGUACUCCGAGAAGGGAGGCCGGUAA [Zainve] (Eterna round: R96, puzzle: Exclusion NG 2) | – | 125 nM | 185 nM | apparent KD of MS2 coat protein [2]: 113 nM |
| ACUAGAUGAGGAUAUGCAUGUUUUCGUGUUCUUCUAGAUUAACAUGAGGAUCACCCAUGUAGAAGGCGUCAUUU [Exclusion 2 - 27] (puzzle: Exclusion 2) | 76.9 nM | – | – | – |
| CUGAGCAGACGGAGAUCCAACAUGAGGAUCACCCAUGUCUCAAAAGCUUUUUGCUUGUCUUACUCUCCUCUGUUCUC [Atenve] (puzzle: Sensor v3, turn-off variant 1) | 103 nM | – | – | apparent KD of MS2 coat protein [3]: 13.9 nM; apparent KD of MS2 coat protein [4]: 11.3 nM |
| CUAGCGAUUGUAGGAUAUCGGACUGUUUCAGUCUGAGAAGGACAUGAGGAUCACCCAUGUGAACCAACGUGAGUUGGACGCUAG [JL ENG1 3.82] (Eterna round: R96, puzzle: Exclusion NG 1) | – | 51.1 nM | 19.4 nM | apparent KD of MS2 coat protein [2]: 12.5 nM |
| ACUGUUCGAGGAUAUACGAUCGUGCUUCGGCACGUAAGAUCACAUGAGGAUCACCCAUGUAGAAGGCGAACAGU [Mod 5 - Jieux - Exclusion 2] (Eterna round: R97, puzzle: Exclusion 2) | – | 292 nM | 38.6 nM | – |
| CUUUUGUGAGGAUAUUAGUAGUAAAUAAAUAAAAUUUCUACUGAGAAGGCACAUGAGGAUCACCCAUGUUCCUC [salish99_ex4_r3_061] (puzzle: Exclusion 4) | 33.2 nM | – | – | – |
| CGGUCCCAUGUGAGGAUAUCGGAGCGAAAAUACUGCGAGAAGGUACAUGAGGAUCACCCAUGUCUCCUAUUGCC [Entiedxebe] (puzzle: Brourd's mod of Exclusion 4) | 15.2 nM | – | – | – |
| ACCUUACAUGAGGAUCACCCAUGUCAGGAUAUCUCGGGCGACCGAGGGCCGGCCGCCCAGAGAAGGGACGAGGA [Aainmaso] (puzzle: Exclusion 1) | 11.8 nM | – | – | – |
| GUGGAGUAAGGAUAUACAUGAGGAUCACCCAUGUGAGGGUAUGUGAUGGGAGUAGGUUGUAGAAGGUACGAGGA [JR_Exclu3_Sub068] (puzzle: Exclusion 3) | 160 nM | – | – | – |
| UUUUUCUUUGUAGGAUAUCGUUUUUUUUUUUUUCGAGAAGGACAUGAGGAUCACCCAUGUUUCAAAAUUUUUUUUUUUUUUUUU [First try] (Eterna round: R96, puzzle: Exclusion NG 1) | – | 25.1 nM | 17.8 nM | apparent KD of MS2 coat protein [2]: 13.3 nM |
| CCAUUAUAAGGAUAUACAUGAGGAUCACCCAUGUACAGGUUAGUUGUACGUACACCGAGUAGAAGGUAUAGAGG [Eternabot (L1) Solution 21] (Eterna round: R97, puzzle: Exclusion 3) | – | 62.5 nM | 63.4 nM | – |
| UAAUAAUAGCAAGGAUAUGAUUAUUAUAAUAUAUCAGAAGGUGCACAUGAGGAUCACCCAUGUUUUAUAAUUUGUAAUUUAAAU [2nd something] (Eterna round: R96, puzzle: Exclusion NG 1) | – | – | – | apparent KD of MS2 coat protein [2]: 40.4 nM |
| AUGAGGUUAGGAUAUACAUGAGGAUCACCCAUGUUGGAGGGUAAGGUAGGAGAAGAAAGUAGAAGGAACGGAGC [JR_Exclu3_Sub058] (puzzle: Exclusion 3) | 82.5 nM | – | – | apparent KD of MS2 coat protein [3]: 68.4 nM; apparent KD of MS2 coat protein [4]: 99.6 nM |
| CGGUGCAGGCUGCGGUCCUACAUGAGGAUCACCCAUGUGGUCCGGUGGCGUGGGUCGCCGGACUUGGCUCGUCUUGU [salish99_S_TOV1_R5_015] (Eterna round: R97, puzzle: Sensor, turn-off variant 1) | – | 56.8 nM | 75.6 nM | – |
| CAGUACUGAGGAUAUACAUGAGGAUCACCCAUGUGUUCCAGCUAGGAAACUAGCAAAUGUAGAAGGCAGUACUG [Salish 065 m8] (Eterna round: R97, puzzle: Exclusion 3) | – | 45.1 nM | 323 nM | – |
| UUUUUACAUGAGGAUCACCCAUGUCAGGAUAUCGUUAUAUUUUAUUAUUUUAUUUUUUCGAGAAGGGACUAUUA [My solution] (puzzle: Exclusion 1) | 74.6 nM | – | – | – |
| GAGCUAUGAGGAUAUGCAUAUAUACGGAUUCGUGUAGUACUACAUGAGGAUCACCCAUGUAGAAGGCGUGGCAG [Mat - Exclusion 2 - Mod of JL - D77] (puzzle: Exclusion 2) | 12.1 nM | – | – | – |
| AAUGAUUGACGAGGAUAUUGUGGUAGAUCACGACGAGAAGGCGUCUGUCACAUGAGGAUCACCCAUGUGAGCUUUGUGGAUAGA [Ex NG1 #73] (Eterna round: R96, puzzle: Exclusion NG 1) | – | 51.6 nM | 72.2 nM | apparent KD of MS2 coat protein [2]: 37.4 nM |
